A word on the Kd: it is the equilibrium constant for the complex coming apart. In general, stoichiometry N refers to a count of units in the complex or per binding partner.

Positions count from the first letter of the chain named. Numbers in names are those of the source.

Data on twelve molecules can be found in PMC6521605, “Structural insights into nanoRNA degradation by human Rexo2” (RNA, 2019).

The target in series [1] is T1, Rexo2 H194A H194A (Homo sapiens) (UniProt Q9Y3B8).
T1 sequence: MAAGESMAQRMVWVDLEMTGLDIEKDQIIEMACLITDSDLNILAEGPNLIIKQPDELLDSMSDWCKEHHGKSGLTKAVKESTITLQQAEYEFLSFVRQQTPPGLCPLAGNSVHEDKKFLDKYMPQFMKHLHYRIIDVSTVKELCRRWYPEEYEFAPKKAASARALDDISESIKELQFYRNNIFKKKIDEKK
The series can be described thus: fluorescence polarization. The settings on record: 50 mM EDTA, Hill coefficient 2.3, FP: 10 nM Cy3-oligonucleotide, 50 mM Tris-HCl pH 7.5, 50 mM NaCl, 15 min at 25 C, crystals: 0.2 M ammonium citrate dibasic, 20% PEG 3350, pH 5.1 ….

For series [2], the target named is T2, Rexo2 H194A (Homo sapiens, UniProt Q9Y3B8 33-223, H194A).
T2 sequence: T1 sequence
Nature of the series: fluorescence polarization; 50 mM EDTA; FP: 10 nM Cy3-oligonucleotide, 50 mM Tris-HCl pH 7.5, 50 mM NaCl, 50 mM EDTA, 15 min at 25 C; crystals: 0.2 M ammonium citrate dibasic, 20% PEG 3350, pH 5.1, room temperature. To be noted: protein: recombinant; tags: N-terminal 6xHis removed by thrombin; chain copies: 2; label: 5'-Cy3; single strand. A general note: In fluorescence polarisation assays a small probe gives low polarisation when free and higher when bound to something large.

Series [3] deals with the molecule itself. Nature of the series: SEC-MALS; purified His-tag-free Rexo2 (residues 33-223); MW of ~44 kDa against 22.436 kDa calculated for a protomer; conditions not given.
Series [4] has as its target T2, Rexo2 H194A. Nature of the series: fluorescence polarization; 50 mM EDTA; Hill coefficient 3.5; Results sentence calls it 12-nt, legend and Methods 11-nt; FP: 10 nM Cy3-oligonucleotide, 50 mM Tris-HCl pH 7.5, 50 mM NaCl, 50 mM EDTA, 15 min at 25 C; crystals: 0.2 M ammonium citrate dibasic, 20% PEG 3350, pH 5.1, room temperature. The settings on record: protein: recombinant; tags: N-terminal 6xHis removed by thrombin; chain copies: 2; label: 5'-Cy3; single strand.

In a further series the target is T3, Rexo2 D199A (Homo sapiens, UniProt Q9Y3B8 33-223, D199A).
T3 sequence: T1 sequence with A162H, D167A
Nature of the series: X-ray crystallography; 2 Mg2+ in active site; pH 5.1; FP: 10 nM Cy3-oligonucleotide, 50 mM Tris-HCl pH 7.5, 50 mM NaCl, 50 mM EDTA, 15 min at 25 C; crystals: 0.2 M ammonium citrate dibasic, 20% PEG 3350, pH 5.1, room temperature. The settings on record: protein: recombinant; tags: N-terminal 6xHis removed by thrombin; chain copies: 2; single strand.

In series [5] the target is T2, Rexo2 H194A. Nature of the series: fluorescence polarization; 50 mM EDTA; Hill coefficient 1.4; FP: 10 nM Cy3-oligonucleotide, 50 mM Tris-HCl pH 7.5, 50 mM NaCl, 50 mM EDTA, 15 min at 25 C; crystals: 0.2 M ammonium citrate dibasic, 20% PEG 3350, pH 5.1, room temperature. To be noted: protein: recombinant; tags: N-terminal 6xHis removed by thrombin; chain copies: 2; label: 5'-Cy3; single strand.

For a further series, the target named is T4, Rexo2 wild type (Homo sapiens, UniProt Q9Y3B8 33-223).
T4 sequence: T1 sequence with A162H
The series can be described thus: X-ray crystallography; no Mg2+ added, two endogenous Mg2+ at partial occupancy; pH 5.1; FP: 10 nM Cy3-oligonucleotide, 50 mM Tris-HCl pH 7.5, 50 mM NaCl, 50 mM EDTA, 15 min at 25 C; crystals: 0.2 M ammonium citrate dibasic, 20% PEG 3350, pH 5.1, room temperature. The settings on record: protein: recombinant; tags: N-terminal 6xHis removed by thrombin; chain copies: 2; single strand.

In series [1], 2-nt RNA A2 registered a Kd of 24.4 nM.

B1: 3-nt DNA T3 (ssDNA)
DNA: TTT
Regarding B1, the Kd in the series with Rexo2 H194A [2] was determined as 29.9 nM.

B2: human RNA exoribonuclease 2 (Rexo2), wild type, residues 33-223 (enzyme, UniProt Q9Y3B8 33-223, looked up)
chain: T1 sequence with A162H
notes: His tag removed with Thrombin (pET28a, NdeI/SalI); a few vector residues may be left at the N-terminus after cleavage (surmise); Calculated MW of a protomer 22.436 kDa; also called wild-type Rexo2; small fragment nuclease; source: E. coli BL21-CodonPlus (DE3) RIPL, purified (HisTrap HP, Thrombin, HisTrap flow-through, Superdex 75); not shown: His6, N-terminal, cleaved
In the case of B2, the “stoichiometry N” value in series [3] was 2.

B3: human Rexo2-H194A mutant, residues 33-223 (enzyme, UniProt Q9Y3B8 33-223, looked up)
chain: T1 sequence
notes: human Rexo2, residues 33-223, general base residue H194 replaced by Ala; Made by site-directed mutagenesis from the wild-type construct; PDB 6J7Y holds the wild-type parent; also called H194A Rexo2 mutant; source: E. coli BL21-CodonPlus (DE3) RIPL, purified (HisTrap HP, Thrombin, HisTrap flow-through, Superdex 75); not shown: His6, N-terminal, cleaved
B3: the “stoichiometry N” value in series [3] is 2.

B4: human Rexo2-D199A mutant, residues 33-223 (enzyme, UniProt Q9Y3B8 33-223, looked up)
chain: T1 sequence with A162H, D167A
notes: Made by site-directed mutagenesis from the wild-type construct; PDB 6J7Y holds the wild-type parent; source: E. coli BL21-CodonPlus (DE3) RIPL, purified (HisTrap HP, Thrombin, HisTrap flow-through, Superdex 75); not shown: His6, N-terminal, cleaved
For the molecule B4, the “stoichiometry N” value in series [3] was 2.

B5: 12-nt DNA T12 (ssDNA)
DNA: TTTTTTTTTTTT
Regarding B5, the Kd with Rexo2 H194A [2] turned out to be 52.2 nM.

B6: 11-nt RNA (ssRNA)
RNA: AGCGCAGUACC
In the case of B6, the Kd in the series with Rexo2 H194A [4] was found to be 44.3 nM.

B7: 5-nt DNA T5 (Cy3) (ssDNA)
DNA: TTTTT
Take B7: the equilibrium dissociation constant (Kd) in the series with Rexo2 H194A [2] worked out at 51.8 nM.

B8: U12 RNA (ssRNA)
RNA: UUUUUUUUUUUU
Take B8: in the series with Rexo2 D199A, the binding result is recorded as “binds”.

B9: 5-nt RNA A5 (ssRNA)
RNA: AAAAA
For B9, the Kd with Rexo2 H194A [5] worked out at 52.1 nM.

B10: T10 DNA (crystal) (ssDNA)
DNA: TTTTTTTTTT
On to B10, for which the binding result in the series with Rexo2 D199A is given as “binds”.

B11: T5 DNA (crystal) (ssDNA)
DNA: TTTTT
For the molecule B11, the binding result with Rexo2 wild type is “binds”.
